Measured values reported in patent US10030233B2, “Modified P450 reductase with N-terminal deletions and endoplasmic reticulum retention tag” (DE MONTFORT UNIVERSITY, priority 2013, dated 2018).

B1: ΔN1hRD-M: human P450 reductase lacking N-terminal 24 amino acids, with C-terminal 12-amino acid c-myc tag; described in WO 2007/129050; gene SEQ ID NO: 5 (protein)
chain: MTDMILFSLIVGLLTYWFLFRKKKEEVPEFTKIQTLTSSVRESSFVEKMKKTGRNIIVFYGSQTGTAEEFANRLSKDAHRYGMRGMSADPEEYDLADLSSLPEIDNALVVFCMATYGEGDPTDNAQDFYDWLQETDVDLSGVKFAVFGLGNKTYEHFNAMGKYVDKRLEQLGAQRIFELGLGDDDGNLEEDFITWREQFWPAVCEHFGVEATGEESSIRQYELVVHTDIDAAKVYMGEMGRLKSYENQKPPFDAKNPFLAAVTTNRKLNQGTERHLMHLELDISDSKIRYESGDHVAVYPANDSALVNQLGKILGADLDVVMSLNNLDEESNKKHPFPCPTSYRTALTYYLDITNPPRTNVLYELAQYASEPSEQELLRKMASSSGEGKELYLSWVVEARRHILAILQDCPSLRPPIDHLCELLPRLQARYYSIASSSKVHPNSVHICAVVVEYETKAGRINKGVATNWLRAKEPAGENGGRALVPMFVRKSQFRLPFKATTPVIMVGPGTGVAPFIGFIQERAWLRQQGKEVGETLLYYGCRRSDEDYLYREELAQFHRDGALTQLNVAFSREQSHKVYVQHLLKQDREHLWKLIEGGAHIYVCGDARNMARDVQNTFYDIVAELGAMEHAQAVDYIKKLMTKGRYSLDVWSSSEQKLISEEDLNGSRL
modifications: delN1hRD-M
B2: ΔN1hRD-HDEL: human P450 reductase lacking N-terminal 24 amino acids, with C-terminal yeast ER retention signal HDEL (protein)
chain: MTDMILFSLIVGLLTYWFLFRKKKEEVPEFTKIQTLTSSVRESSFVEKMKKTGRNIIVFYGSQTGTAEEFANRLSKDAHRYGMRGMSADPEEYDLADLSSLPEIDNALVVFCMATYGEGDPTDNAQDFYDWLQETDVDLSGVKFAVFGLGNKTYEHFNAMGKYVDKRLEQLGAQRIFELGLGDDDGNLEEDFITWREQFWPAVCEHFGVEATGEESSIRQYELVVHTDIDAAKVYMGEMGRLKSYENQKPPFDAKNPFLAAVTTNRKLNQGTERHLMHLELDISDSKIRYESGDHVAVYPANDSALVNQLGKILGADLDVVMSLNNLDEESNKKHPFPCPTSYRTALTYYLDITNPPRTNVLYELAQYASEPSEQELLRKMASSSGEGKELYLSWVVEARRHILAILQDCPSLRPPIDHLCELLPRLQARYYSIASSSKVHPNSVHICAVVVEYETKAGRINKGVATNWLRAKEPAGENGGRALVPMFVRKSQFRLPFKATTPVIMVGPGTGVAPFIGFIQERAWLRQQGKEVGETLLYYGCRRSDEDYLYREELAQFHRDGALTQLNVAFSREQSHKVYVQHLLKQDREHLWKLIEGGAHIYVCGDARNMARDVQNTFYDIVAELGAMEHAQAVDYIKKLMTKGRYSLDVWSHDEL
modifications: delN1hRD-HDEL
notes: human P450 reductase lacking N-terminal 24 amino acids, with C-terminal yeast ER retention signal HDEL
B3: hRD: wild-type human P450 reductase, full length, control (protein, listed as Homo sapiens)
chain: MGDSHVDTSSTVSEAVAEEVSLFSMTDMILFSLIVGLLTYWFLFRKKKEEVPEFTKIQTLTSSVRESSFVEKMKKTGRNIIVFYGSQTGTAEEFANRLSKDAHRYGMRGMSADPEEYDLADLSSLPEIDNALVVFCMATYGEGDPTDNAQDFYDWLQETDVDLSGVKFAVFGLGNKTYEHFNAMGKYVDKRLEQLGAQRIFELGLGDDDGNLEEDFITWREQFWPAVCEHFGVEATGEESSIRQYELVVHTDIDAAKVYMGEMGRLKSYENQKPPFDAKNPFLAAVTTNRKLNQGTERHLMHLELDISDSKIRYESGDHVAVYPANDSALVNQLGKILGADLDVVMSLNNLDEESNKKHPFPCPTSYRTALTYYLDITNPPRTNVLYELAQYASEPSEQELLRKMASSSGEGKELYLSWVVEARRHILAILQDCPSLRPPIDHLCELLPRLQARYYSIASSSKVHPNSVHICAVVVEYETKAGRINKGVATNWLRAKEPAGENGGRALVPMFVRKSQFRLPFKATTPVIMVGPGTGVAPFIGFIQERAWLRQQGKEVGETLLYYGCRRSDEDYLYREELAQFHRDGALTQLNVAFSREQSHKVYVQHLLKQDREHLWKLIEGGAHIYVCGDARNMARDVQNTFYDIVAELGAMEHAQAVDYIKKLMTKGRYSLDVWS
B4: ΔN2hRD-HDEL: human P450 reductase lacking the 54-amino acid membrane anchoring region, with C-terminal yeast ER retention signal HDEL (protein)
chain: MTKIQTLTSSVRESSFVEKMKKTGRNIIVFYGSQTGTAEEFANRLSKDAHRYGMRGMSADPEEYDLADLSSLPEIDNALVVFCMATYGEGDPTDNAQDFYDWLQETDVDLSGVKFAVFGLGNKTYEHFNAMGKYVDKRLEQLGAQRIFELGLGDDDGNLEEDFITWREQFWPAVCEHFGVEATGEESSIRQYELVVHTDIDAAKVYMGEMGRLKSYENQKPPFDAKNPFLAAVTTNRKLNQGTERHLMHLELDISDSKIRYESGDHVAVYPANDSALVNQLGKILGADLDVVMSLNNLDEESNKKHPFPCPTSYRTALTYYLDITNPPRTNVLYELAQYASEPSEQELLRKMASSSGEGKELYLSWVVEARRHILAILQDCPSLRPPIDHLCELLPRLQARYYSIASSSKVHPNSVHICAVVVEYETKAGRINKGVATNWLRAKEPAGENGGRALVPMFVRKSQFRLPFKATTPVIMVGPGTGVAPFIGFIQERAWLRQQGKEVGETLLYYGCRRSDEDYLYREELAQFHRDGALTQLNVAFSREQSHKVYVQHLLKQDREHLWKLIEGGAHIYVCGDARNMARDVQNTFYDIVAELGAMEHAQAVDYIKKLMTKGRYSLDVWSHDEL
modifications: delN2hRD-HDEL
notes: human P450 reductase lacking the 54-amino acid membrane anchoring region, with C-terminal yeast ER retention signal HDEL

Experiments:
[1] = system: CYP1A2; assay: Amount of CYP1A2 in yeast microsomes by CO-difference spectra, co-expressed with P450 reductase variants; format: cell-based, human; settings: relative to hRD = 1; yeast W303B, pSYE265
Description: (§1) The hRD variant genes, (ΔN1hRD-M, ΔN1hRD-HDEL, ΔN2hRD-HDEL), were integrated into Saccharomyces cerevisiae strain W303B (MAT a leu2 his3 trp1 can1-100 ade2 trp1 ura3) using standard yeast transformation procedures as detailed below. The integrating plasmids, bearing the ΔN1hRD-M, ΔN1hRD-HDEL, ΔN2hRD-HDEL genes, were first linearised with the restriction enzyme BstEII before introducing linearised DNA into yeast cells via homologous recombination. The resultant strains were named: • a) W303B-ΔN1hRD-M, • b) W303B-ΔN1hRD-HDEL, • c) W303B-ΔN2hRD-HDEL.
(§2) They were used for the transformation of the yeast episomal plasmids that bear the CYP2D6 and CYP1A2 genes: • 1. pSYE264 (bearing the human CYP2D6 gene), • 2. pSYE265 (bearing the human CYP1A2 gene).
(§3) A single colony from the strains W303B-ΔN1hRD-M, W303B-ΔN1hRD-HDEL, W303B-ΔN2hRD-HDEL were picked up from a minimal medium (SD) plate (supplemented with appropriate nutrients depending on the auxotrophic markers in the yeast strain) and inoculated into 10 ml of YPD medium (2% Bacto Peptone, 1% yeast extract, 2% glucose). The cells were grown overnight at 30° C. with 220 rpm shaking. 1.5 ml of overnight cultures were centrifuged at 13,000 rpm for a few seconds to collect the cell pellets. 0.5-2 μg of transforming DNA (i.e. the CYP bearing expression plasmids, pSYE264 and pSYE265) and 100 μg of single-stranded salmon sperm DNA were added to pellets and vortexed briefly. 500 μl of PEG solution (40% PEG 3350, 0.1M lithium acetate pH 7.5, 10 mM Tris-HCl pH 7.5, 1 mM EDTA pH7.5) and 5-10% DMSO were added to transformation mixes. All mixes were incubated in a Thermo-mixer for 15 min at 25° C. with shaking at 400 rpm, and then were heat shocked for 15 min at 42° C. After 10 min, 5-10% ethanol was added. The cells were pelleted at 8000 rpm for 1 min and were washed twice in 1×TE buffer and re-suspended in 250 μl-500 μl 1×TE pH7.5. The cells were plated out on SD agar medium and incubated at 30° C. for 2-3 days.
(§4) Recombinant yeast cells were grown in culture using the following protocol: • 1. […] On day two, once OD600 (i.e. OD measured at 600 nm) of the cultures reached 5 to 6 OD-s, the cultures were inoculated into 400 ml YPD medium (1% Bacto Peptone, 1% yeast extract, 2% glucose) with appropriate nutrients in 2-liter flask. […] On day three, after 16 hours, optical density was again measured at 600 nm after diluting the original culture 1:10. […] At the final step, supernatant was poured away and the dry pellet was frozen at −80° C. and the pellet weight was recorded. […]
(§5) The cell pellet that had been obtained from the earlier cell culture was weighed and the weight of cell pellet was recorded. […]

[2] = system: CYP2D6; assay: Amount of CYP2D6 in yeast microsomes by CO-difference spectra, co-expressed with P450 reductase variants; format: cell-based, human; settings: relative to hRD = 1; genes synthesized using yeast biased codons; yeast W303B, pSYE264
Description: as §1, §2, §3, §4, §5

[3] = target: T1, CYP2D6 (Homo sapiens, UniProt P10635, V374M); format: biochemical
T1 construct: A 1506 bp BamHI-XbaI fragment containing the human CYP2D6 gene; made in house; host or cells: Saccharomyces cerevisiae W303B, microsomes
T1 sequence (P10635 whole entry V374M, the tested form may be a part): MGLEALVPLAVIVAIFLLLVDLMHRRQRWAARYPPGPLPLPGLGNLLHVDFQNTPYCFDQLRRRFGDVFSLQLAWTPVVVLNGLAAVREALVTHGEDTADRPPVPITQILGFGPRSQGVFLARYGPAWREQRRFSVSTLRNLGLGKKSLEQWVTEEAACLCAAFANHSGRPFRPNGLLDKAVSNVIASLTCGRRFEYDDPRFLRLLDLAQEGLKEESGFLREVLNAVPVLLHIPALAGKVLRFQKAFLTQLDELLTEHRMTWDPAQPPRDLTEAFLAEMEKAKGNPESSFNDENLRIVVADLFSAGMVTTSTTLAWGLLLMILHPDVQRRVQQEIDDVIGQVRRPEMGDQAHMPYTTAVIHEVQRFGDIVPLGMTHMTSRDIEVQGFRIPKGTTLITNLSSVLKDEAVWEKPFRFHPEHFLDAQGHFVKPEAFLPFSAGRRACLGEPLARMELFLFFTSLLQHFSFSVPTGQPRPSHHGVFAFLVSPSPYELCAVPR

Molecule	Relative Amounts of CYP1A2 Obtained [1]	Relative Amounts of CYP2D6 Obtained [2]	pmoles of CYP2D6/mg of total protein (Relative Amounts) [3]
B1	3.2 ± 10%	3 ± 10%	4 ± 10%
B2	4.0 ± 10%	3.8 ± 10%	6 ± 10%
B3	1	1	1
B4	4.5 ± 10%	4.0 ± 10%	6 ± 10%
